The values below come from the DeepSol protein solubility set.

The data set is described as follows: soluble on expression in E. coli; label from the status in PepcDB or PDB records.
Turning to “MDAEPSTPKQTEQEPSALSSADQVTNEPMESIIRPSILDSNSKMGNKQEDEDRLKKDSGPSTSNQAEQDPSKSADQFVTLSRPTTLGFSPTFESLQNNQEDTKQSTRLLNEDQDRDTLLKKHVDSLYALSERCIIFAGVLNQFLPTEKRRSKTDFLTENMLAALLSELITQIEVSDLRAKANPAVGKQEGDRCKELVSEKSCIEESLRNFREFAKEDSKTDTSSKLDPPNLNTLLYQLEGIEKIMNSIQTTLEANNFNDSENGSNEVTPNKSQLEGDSLKEVPSEESQIVDSAHDGDSRKEGESEVSEMDNVALDKDLPEETETDKTLVDEIPLEDLDKEPLDENPLEGSPGPAQNMTERNIRKRPNSRHDNVSPSKLQKV”, the “soluble on expression in E. coli” value is given as “soluble”.
The result for “GANETTKQESPVVDTDINAVTNYIVGMCQKFLQKGEKVTPSSKLEELRTREDRLWDCLDTVEFVLDVEEIFDVTVPDEVADNFQTLQEIADFVVSERAKAGKFMKDQ” reads “soluble”; that for “MSLATKDPTAVERANLLNMAKLSIKGLIESALSFGRTLDSDYPPLQQFFVVMEHCLKHGLKGRKSFLSYNKTIWGPLELVEKLYPEAEEIGASVRDLPGLKTPLGRARAWLRLALMQKKMADYLRCLIIQRELLSEFYEYHALMMEEEGAVIVGLLVGLNVIDANLCVKGEDLDSQVGVIDFSMYLKNEEEIGNKERNVQIAAILDQKNYVEELNRQLNSTVSSLHSRVDSLEKSNTKLIEELAIAKNNIIKLQEENHQLRSENELILMRTRQHLEVTKVDVETELQTYKHSRQGLDEMYNDARRQLRDESQLRQDVENELSVQVGMKHEMELAMKLLEKDIHEKQDTLIGLRQQLEEVKAINIEMYQRLQGSEDGLKEKNEIIARLEEKTNKITTAMRQLEQRLQQAEKAQKEAEAEDEKYAQECLSQSDSLQRQISQKEQQLVQLETDLKIEKEWRQTLQEDLQKEKDVLSHLRHETQKVISLKKEFLNLQDENQQLKRIYQEQEQALQELGSKLCESKLKIDDIKEANKALQGLVWLKDKDATHCKLCEKEFSLSKRKHHCRNCGEIFCNACSDNELPLPSSPKPVRVCDSCHAMLIQRCSSNMPEGHHHHHH”, “not soluble”.
The entry for “MTVRRTAAARRGRDRKAEIVFPAPGADRFGRGDEPSVAVIGGGIAGLAAATLMAERGARVTLYEKEDAVGGRLSGRRTTLADGSAVTMTRGFHAFFRQYYNLRGLLRRTDPGLDRLTPLPDYPLRHSGGLTDGFARVPRTPPLSAIGFVALSPTFGWRDLAAMDPRAALPLLDVRVPQVYERFDGVTATAFLESVRFPEAAHHLAFEVFSRSFFADPRRLSAAELLLMFHIYFLGSSEGLLFDVPVEPFPQALWNPLGDYLRRLGADVRTGTPVHGILPRADGGADVLTDTGADRHQAVVLALDTAGLRQTVAASPGLGTDTWRDGIAALRTAPPFLVSRLWLDRPVDADRPGFLGTSGYGGLDNVSVLERYEGEAARWAARTGGSVVELHAYAVDPAAEPKEVQDELVDRLHQAYPETREARVVDARHEWRADCPMFEVGSHRRRPTVRTPHPWLTLAGDGIRCDLPVALMERAATTGFLAANALLADRGVRGQVLWTVPRTGRSPVLRAFGAVAGHRSAPLEHHHHHH” is “not soluble”; for “MANRCRLKPYNRRQNNACSNRTHTLPANGLRNLRLLDLRTKVTELKHIGGQSTAAIADLAGEMRRLAKKSKMLLKGLWPFLSSTISAFKINQSLFKHYYKTVQLLNCKHRKKNY” it is “not soluble”; for “MGSDKIHHHHHHMYCGVPEEDPDKLVALILSGGQSSRMGTDKGSMELNGERLVERAGNLCASAGLPFYYSINASQNQQYLNFLPADALIVDTLDDIKGPLAGLLSFYVKYPNTDVLLLPCDMIHLGKSILSDLVQAYETMSIGHDIIVYQYANEIIEPMPGIYTSEALRKIYWLFLSGDLTRFSLKYCIEISNSFFIPIKKEAEVLFKNINSPEDITPSK” it is “not soluble”.
The entry for “MQLTPLQQAKPEKEEISPYAINNILSSTQSSPDNGNEADDKENSSVRRNTFPASSASTKKPRGTPYDRTNTPMTVVPQMPQFAPDFSNYNLTMNAWSEFFKKDRCMVCGDNSTGYHYGVQSCEGCKGFFRRSVHKNIAYVCTKGENCTFSYENCAANRGVRTRCQACRFAKCLAVGMNRDNVRVNKETDKDVKPSVASPNFEMTSQVKELTAAFVANMPCSTHLTSGTHAIGAIKKFIESVPALSSLLPKDEKALEMSIQKVMSGILAIRAAFTFDPITFYSCENPVNLLRGGIRNTVFNDCEVALLSGIHILQIVNGGVAEIFTSYCQGLRHQLSQTHLQEIGLCDRLLMRLGPYLNQ” is “not soluble”.
